Test results reported in article PMC8584774.

Target: α-cardiac actin (F-actin) (Sus scrofa)
Experiment: co-sedimentation; high-speed cosedimentation; F-actin (0–40 µM) with 5 µM C0–C2 or 30 µM C2; 25 mM HEPES pH 7.3, 25 mM KCl, 5 mM MgCl2, 1 mM EGTA; 30 min at room temperature; 55,000 rpm 30 min; SDS-PAGE densitometry of supernatant and pellet; quadratic fit

| Substance | Kd [nM] | percent of C2 in the pellet fraction [%] |
| --- | --- | --- |
| MyBPC C0–C2 D389V (from UniProt Q14896 1-452) (domain or fragment) | 2800 |  |
| MyBPC C0–C2 wt (cardiac myosin-binding protein C, N-terminal fragment with subdomains C0 to C2) (from UniProt Q14896 1-452) (domain or fragment) | 3200 |  |
| MyBPC C2 wt (isolated IgI-like C2 domain of cardiac myosin-binding protein C) (from UniProt Q14896 362-452) (domain or fragment) |  | < 2 |
